# Where no end group is shown, it is not given here.
# Settings: rat, in vivo
substance,measurement,value
"fluorescence-labeled UCN: UCN labeled with the Alexa Fluor 488 dye using Microscale Protein Labeling Kit (DNPSLSIDLTFHLLRTLLELARTQSQRERAEQNRIIFDSV; ends and bridges not checked; also: Alexa Fluor 488 label, site not given here; UniProt P55089 83-122, looked up)",penetration from lateral ventricle into striatal parenchyma,co-localized in cell nuclei of the striatum on the ipsilateral

# — patent publication US8802630B2, “Method of treating brain injury” (Buddhist Tzu Chi General Hospital, priority 2011, dated 2014)
